Details in all cases: both partners purified
The target in test [1] is T1, SurA Q85C-E301C labelled with Alexa Fluor 488 and Alexa Fluor 594 (E. coli, UniProt P0ABZ6 21-428, Q85C | E301C, Alexa Fluor 488 C5 maleimide and Alexa Fluor 594 C5 maleimide, stochastically, on Cys 85 and Cys 301).
T1 construct: gene numbering with the signal peptide; also called core-P2 SurA variant; SurA core-P2; source: E. coli BL21(DE3), purified as wild type with 10 mM DTT; labelled with Alexa Fluor maleimides, SEC; not shown: His6, N-terminal, cleaved
T1 sequence (looked up): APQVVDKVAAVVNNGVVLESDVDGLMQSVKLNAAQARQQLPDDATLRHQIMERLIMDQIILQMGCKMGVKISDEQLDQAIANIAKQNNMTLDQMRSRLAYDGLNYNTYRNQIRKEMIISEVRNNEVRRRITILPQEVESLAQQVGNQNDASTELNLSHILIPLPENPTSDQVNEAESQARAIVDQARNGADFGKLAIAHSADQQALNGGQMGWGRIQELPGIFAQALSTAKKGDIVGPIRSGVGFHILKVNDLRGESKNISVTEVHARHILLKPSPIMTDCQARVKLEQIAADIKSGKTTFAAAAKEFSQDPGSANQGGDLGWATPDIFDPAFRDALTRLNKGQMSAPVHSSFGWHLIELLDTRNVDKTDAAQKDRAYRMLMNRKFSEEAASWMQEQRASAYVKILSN
Nature of the test: FRET or BRET; intramolecular smFRET (ALEX) of ~50 pM doubly labelled SurA variant with 1.5 µM WEYIPNV, 50 mM Tris-HCl pH 8.0, 25 °C; change of the inter-domain E_FRET distribution against apo-SurA. (In BRET a luciferase serves as donor, and the signal depends on an acceptor being close.)

Test [2] has as its target T2, SurA Q85C-N193C labelled with Alexa Fluor 488 and Alexa Fluor 594 (E. coli, UniProt P0ABZ6 21-428, Q85C | N193C, Alexa Fluor 488 C5 maleimide and Alexa Fluor 594 C5 maleimide, stochastically, on Cys 85 and Cys 193).
T2 construct: gene numbering with the signal peptide; also called core-P1 SurA variant; SurA core-P1; source: E. coli BL21(DE3), purified as wild type with 10 mM DTT; labelled with Alexa Fluor maleimides, SEC; not shown: His6, N-terminal, cleaved
T2 sequence (looked up): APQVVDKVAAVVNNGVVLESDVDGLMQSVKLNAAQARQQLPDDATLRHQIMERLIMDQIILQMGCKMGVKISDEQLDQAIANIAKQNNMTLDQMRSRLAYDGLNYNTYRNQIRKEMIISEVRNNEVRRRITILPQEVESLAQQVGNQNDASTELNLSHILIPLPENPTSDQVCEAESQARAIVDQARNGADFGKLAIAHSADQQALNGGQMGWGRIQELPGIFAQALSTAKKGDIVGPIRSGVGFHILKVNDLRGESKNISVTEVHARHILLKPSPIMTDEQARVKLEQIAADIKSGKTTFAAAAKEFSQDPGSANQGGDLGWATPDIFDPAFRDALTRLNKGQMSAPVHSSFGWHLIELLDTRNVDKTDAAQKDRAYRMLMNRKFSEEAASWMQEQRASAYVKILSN
The test is described as above.

For test [3], the target named is T3, SurA (E. coli periplasmic chaperone, wild type, mature sequence) (E. coli, UniProt P0ABZ6 21-428).
T3 construct: numbering is the gene numbering with the signal peptide; also called SurA WT; apo-SurA; source: E. coli BL21(DE3), purified (HisTrap, denatured on-column with 6 M Gdn-HCl, TEV cleavage, second HisTrap); not shown: His6, N-terminal, cleaved
T3 sequence (looked up): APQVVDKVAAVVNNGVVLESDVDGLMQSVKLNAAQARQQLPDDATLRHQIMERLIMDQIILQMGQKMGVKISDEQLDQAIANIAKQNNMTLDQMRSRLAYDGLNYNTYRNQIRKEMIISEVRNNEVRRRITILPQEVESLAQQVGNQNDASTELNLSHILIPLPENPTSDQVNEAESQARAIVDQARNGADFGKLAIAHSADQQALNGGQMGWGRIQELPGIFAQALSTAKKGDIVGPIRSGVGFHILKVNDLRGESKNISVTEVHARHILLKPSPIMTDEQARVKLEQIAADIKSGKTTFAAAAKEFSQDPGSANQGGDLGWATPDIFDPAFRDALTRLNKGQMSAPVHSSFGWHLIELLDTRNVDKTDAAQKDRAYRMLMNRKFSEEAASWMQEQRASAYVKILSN
The test is described as follows: HDX-MS; differential HDX of 8 µM SurA without and with 110 µM WEYIPNV, 10 mM potassium phosphate pH 8.0, 4 °C, 0.5-120 min.

The target of test [4] is T3, SurA (E. coli periplasmic chaperone, …). Nature of the test: MST; 50 nM Alexa Fluor 488-labelled Cys-OmpX, SurA titrated 100 µM-3 nM, 0.24 M urea, 50 mM Tris-HCl pH 8.0; fitted to the Hill equation; apparent.
Test [5] has the same target. The test is described as follows: cross-linking; tag-transfer photo-cross-linking: 10 µM SurA, 5 µM MTS-diazirine-labelled OmpX Cys variant, 0.24 M urea, 10 mM potassium phosphate pH 8.0, UV LED 30 s; SDS-PAGE, LC-MS/MS.
Test [6] concerns the target T2, SurA Q85C-N193C labelled with Alexa …. The test is described as follows: FRET or BRET; intramolecular smFRET (ALEX) of ~50 pM doubly labelled SurA variant with 1.5 µM OmpX or OmpF, 50 mM Tris-HCl pH 8.0, 0.24 M urea, 25 °C; change of the inter-domain E_FRET distribution against apo-SurA.
The target of test [7] is T3, SurA (E. coli periplasmic chaperone, …). The test is described as follows: cross-linking; DSBU, 5 µM SurA, 5 µM OmpX, 0.24 M urea, 10 mM potassium phosphate pH 8.0, 45 min, room temperature; SDS-PAGE band, in-gel digestion, LC-MS/MS.
The target is the same in test [8]. The test is described as follows: HDX-MS; differential HDX of 8 µM SurA without and with 8 µM OmpX or OmpF, 10 mM potassium phosphate pH 8.0, 0.24 M urea, 4 °C, 0.5-120 min.

Regarding WEYIPNV [WEYIPNV peptide], the binding result in test [1], in test [2] and in test [3] was “binds” in each case.

B1: Cys-OmpX labelled with Alexa Fluor 488 (natural protein, E. coli)
chain: MGSCATSTVTGGYAQSDAQGQMNKMGGFNLKYRYEEDNSPLGVIGSFTYTEKSRTASSGDYNKNQYYGITAGPAYRINDWASIYGVVGVGYGKFQTTEYPTYKHDTSDYGFSYGAGLQFNPMENVALDFSYEQSRIRSVDVGTWIAGVGYRF
modifications: Alexa Fluor 488 C5 maleimide on the added Cys
notes: N-terminal Met followed by the added residues Gly-Ser-Cys (named in words); also called labelled Cys-OmpX; source: E. coli BL21[DE3], inclusion bodies, purified; labelled with Alexa Fluor 488 C5 maleimide
As for B1, in test [4], the Kd is around 800 nM.

B2: OmpX V167C labelled with MTS-diazirine (natural protein, E. coli)
chain: MATSTVTGGYAQSDAQGQMNKMGGFNLKYRYEEDNSPLGVIGSFTYTEKSRTASSGDYNKNQYYGITAGPAYRINDWASIYGVVGVGYGKFQTTEYPTYKHDTSDYGFSYGAGLQFNPMENVALDFSYEQSRIRSVDVGTWIAGCGYRF
modifications: MTS-diazirine on Cys 167
notes: N-terminal Met residue of the OmpX construct (named in words); source: purified, conjugated with MTS-diazirine in 6 M guanidine-HCl
On to B2, for which the binding result in test [5] is “binds”.

B3: OmpX K122C labelled with MTS-diazirine (natural protein, E. coli)
chain: MATSTVTGGYAQSDAQGQMNKMGGFNLKYRYEEDNSPLGVIGSFTYTEKSRTASSGDYNKNQYYGITAGPAYRINDWASIYGVVGVGYGKFQTTEYPTYCHDTSDYGFSYGAGLQFNPMENVALDFSYEQSRIRSVDVGTWIAGVGYRF
modifications: MTS-diazirine on Cys 122
notes: as for B2
B3: the binding result in test [5] is “binds”.

B4: OmpX M41C labelled with MTS-diazirine (natural protein, E. coli)
chain: MATSTVTGGYAQSDAQGQCNKMGGFNLKYRYEEDNSPLGVIGSFTYTEKSRTASSGDYNKNQYYGITAGPAYRINDWASIYGVVGVGYGKFQTTEYPTYKHDTSDYGFSYGAGLQFNPMENVALDFSYEQSRIRSVDVGTWIAGVGYRF
modifications: MTS-diazirine on Cys 41
notes: as for B2
In the case of B4, the binding result in test [5] is reported as “binds”.

B5: OmpX (E. coli outer membrane protein X, mature sequence, unfolded) (natural protein)
chain: MATSTVTGGYAQSDAQGQMNKMGGFNLKYRYEEDNSPLGVIGSFTYTEKSRTASSGDYNKNQYYGITAGPAYRINDWASIYGVVGVGYGKFQTTEYPTYKHDTSDYGFSYGAGLQFNPMENVALDFSYEQSRIRSVDVGTWIAGVGYRF
notes: N-terminal Met residue of the construct (named in words); Unfolded client in 0.24 M urea; source: E. coli BL21[DE3], inclusion bodies, purified (gel filtration in 6 M Gdn-HCl); urea-denatured and diluted into the assay
Turning to B5, the binding result in test [6] and in test [7] was “binds” in each case.

B6: OmpF (E. coli outer membrane protein F, mature sequence, unfolded) (natural protein, UniProt P02931 23-362, looked up)
chain: AEIYNKDGNKVDLYGKAVGLHYFSKGNGENSYGGNGDMTYARLGFKGETQINSDLTGYGQWEYNFQGNNSEGADAQTGNKTRLAFAGLKYADVGSFDYGRNYGVVYDALGYTDMLPEFGGDTAYSDDFFVGRVGGVATYRNSNFFGLVDGLNFAVQYLGKNERDTARRSNGDGVGGSISYEYEGFGIVGAYGAADRTNLQEAQPLGNGKKAEQWATGLKYDANNIYLAANYGETRNATPITNKFTNTSGFANKTQDVLLVAQYQFDFGLRPSIAYTKSKAKDVEGIGDVDLVNYFEVGATYYFNKNMSTYVDYIINQIDSDNKLGVGSDDTVAVGIVYQF
notes: source: E. coli BL21[DE3], inclusion bodies, purified (gel filtration in 6 M Gdn-HCl); urea-denatured and diluted into the assay
For the molecule B6, the binding result in test [8] and in test [6] was “binds” each time.

B7: OmpX I102C labelled with MTS-diazirine (natural protein, E. coli)
chain: MATSTVTGGYAQSDAQGQMNKMGGFNLKYRYEEDNSPLGVIGSFTYTEKSRTASSGDYNKNQYYGITAGPAYRINDWASCYGVVGVGYGKFQTTEYPTYKHDTSDYGFSYGAGLQFNPMENVALDFSYEQSRIRSVDVGTWIAGVGYRF
modifications: MTS-diazirine on Cys 102
notes: as for B2
Regarding B7, the binding result in test [5] is listed as “binds”.
